One block for each molecule: values may come before it.
Experiments:
[1] = Iohexol plasma clearance in mice; type: in vivo; settings: mouse, intravenous, 100 μl (iohexol diluted 1:10 from stock solution), male C3H mice, read-out: GFR with the iohexol plasma clearance method
Protocol: Male mice (C3H, n=8) anesthetized with isoflurane were injected i.v. in the tail vein with 100 μl iohexol (diluted 1:10 from stock solution). 15 minutes following the injection, the mice were re-anesthetized with isoflurane and were kept anesthetized until termination of the experiments. Blood samples (each 20 μl) were collected from the retro-orbital space at 15, 30, 45 and 60 minutes.
Iohexol clearance was calculated by a bi-exponential method as: GFR=Dose/AUC, where AUC is the area under the plasma iohexol concentration curve. In addition, the slope of the second mono-exponential phase of the plasma disappearance curve for iohexol (k) was calculated using blood samples taken at 60, 90, 120, and 180 minutes.
For measurement of iohexol, all blood samples were centrifuged at 2000 g for collection of plasma. Plasma samples (5 μl from rats and 1 μl from mice) were immediately diluted 7.5-60 times by 0.1% (v/v) trifluoroacetic acid (TFA) in water and their iohexol concentrations were measured by two-dimensional HPLC using the Thermo Scientific™ Dionex™ UltiMate™ […] Rapid Separation series hardware, column switching and Chromeleon Chromatography Data System software (7.2.10). […] Both columns were washed separately by 99.9% acetonitrile/0.1% TFA, re-equilibrated in 0.1% TFA in water and ready for the next sample 9 minutes after injection. […]

Iohexol plasma clearance = type: in vivo, rats; settings: for GFR relative to the initial control value (iohexol): CKD rats; for clearance: rat, plasma, 105 mg
Mouse PET-CT GFR = type: in vivo; settings: male C3H mice
Protocol: All animals were scanned using the same scanner, anesthesia procedure, monitoring and positioning as mentioned above. First, CT semicircular scans (same settings as contrast CT) were acquired from the lower edge of the ribs to the pelvis for anatomical reference and attenuation correction for PET. Following CT, a 10-minute dynamic PET acquisition was initiated, which was started 30 seconds before the bolus injection (30 sec duration of the injection) of 5-10 MBq ^18F-cytochrome C diluted in 1 ml saline through a tail vein catheter. […]
In more detail, 6 input function candidates were generated from 6 sphere-VOIs with diameters of 5, 6, 7, 8, 9, and 10 mm centered on the maximal signal intensity from the vessels and used for regression analyses to obtain an unbiased estimate of the area under the input function (AUC). […] An unbiased AUC was obtained from the regression analysis using a VOI-volume (x in regression equation) corresponding to a blood vessel diameter of 2.41 mm as measured by the ruler function with the software on the contrast CT images (n=8 images from 8 rats, SD=0.02). […] The auto segmentation tool was used to collect the ^18F-signals from both kidneys at 5.5 minutes using thresholds that gave VOI-volumes that matched the kidney volumes as measured by contrast CT. […]

[2] = PET GFR scanning (kidney activity divided by AUC); type: in vivo, rats; settings: for GFR relative to the initial control value (PET-CT): CKD rats
Protocol: (§1) All animals were scanned using the same scanner, anesthesia procedure, monitoring and positioning as mentioned above. First, CT semicircular scans (same settings as contrast CT) were acquired from the lower edge of the ribs to the pelvis for anatomical reference and attenuation correction for PET. Following CT, a 10-minute dynamic PET acquisition was initiated, which was started 30 seconds before the bolus injection (30 sec duration of the injection) of 5-10 MBq ^18F-cytochrome C diluted in 1 ml saline through a tail vein catheter. Images were reconstructed in 1-5 coincidence mode using the Tera-Tomo 3D reconstruction algorithm (Mediso) with 4 iterations/6 subsets, corrected for attenuation and scatter with a resulting 0.4 mm^3 voxel size. The PET acquisition was reconstructed to 15 timeframes: […]; 6×30 s; 3×120 s.
SD male rats (n=8) were fed by 0.35% adenine in the chow (Altromin, Denmark) for 7 weeks to induce chronic kidney disease (CKD). PET-CT GFR scanning was performed at baseline and at 3, 5 and 7 weeks after initiation of adenine feeding. Iohexol clearance (described below) was performed at baseline and after 3, 5 and 7 weeks of adenine feeding. Blood samples were taken every second week for creatinine measurements.
All images were analyzed using Inter View Fusion version 3.01.021.0000 (Mediso), and CT and PET images were automatically aligned. The sphere selection volume of interest (VOI) function was used to collect the signal from the large abdominal vessels close to the distal aorta branch level in the frame with the highest intensity and copied to all other frames to obtain the ^18F-cytochrome C intensity as a function of time (input function).
In more detail, 6 input function candidates were generated from 6 sphere-VOIs with diameters of 5, 6, 7, 8, 9, and 10 mm centered on the maximal signal intensity from the vessels and used for regression analyses to obtain an unbiased estimate of the area under the input function (AUC). […] An unbiased AUC was obtained from the regression analysis using a VOI-volume (x in regression equation) corresponding to a blood vessel diameter of 2.41 mm as measured by the ruler function with the software on the contrast CT images (n=8 images from 8 rats, SD=0.02). This approach was verified by ex vivo blood and kidney samples in a separate set of rats (n=8), i.e. the ^18F-clearances obtained by ex vivo sampling were not different from those obtained by the PET images. The same approach was adopted for mice using sphere diameters of 1, 1.5, 2, 2.5, 3, 3.5, and 4 mm and abdominal vessel diameter of 0.9 mm (n=8 mice, SD=0.07). The auto segmentation tool was used to collect the ^18F-signals from both kidneys at 5.5 minutes using thresholds that gave VOI-volumes that matched the kidney volumes as measured by contrast CT. The total kidney ^18F-activity was calculated as the mean VOI-intensity multiplied with the kidney cortex volume (total kidney volume from CT×2/3) and divided by AUC to obtain GFR.

[3] = design: species or system rats; settings: rat, in vivo
Protocol: as §1
To investigate the initial distribution, uptake and excretion of ^18F-cytochrome C in the body, two rats were dynamically scanned by PET-CT for 30 minutes. […] The ^18F signal peaked over the large abdominal vessels in less than 1 minute and appeared in the bladder in less than 10 minutes. After 10 minutes, the bladder signal increased exponentially and the kidney signal leveled out reflecting urinary excretion of ^18F-cytochrome C breakdown products.

[4] = Stability and plasma protein binding of labelled proteins by SEC-HPLC; type: physicochemical; settings: high resolution size exclusion chromatography
Protocol: The stability and plasma protein binding of stock solutions of ^18F-cytochrome C and ^124I-cystatin C was evaluated by high resolution size exclusion chromatography (SEC-HPLC) after 12 h storage in room temperature and after 8 days of storage in fridge (4° C.).

clearance [1]: 0.51 ± 0.13 mL/min
GFR relative to the initial control value (iohexol) (Iohexol plasma clearance; 3 weeks of adenine): −50%
GFR relative to the initial control value (iohexol) (Iohexol plasma clearance; 7 weeks of adenine): −20%
GFR Iohexol/100 g (Iohexol plasma clearance; SD female rats (n = 6)): 0.73 ± 0.07 ml/min · 100 g
k, plasma disappearance rate constant of iohexol for the second mono-exponential phase (Iohexol plasma clearance; SD female rats (n = 6)): 0.026 ± 0.002 min⁻¹
iohexol-based GFR (Iohexol plasma clearance; SD females (n=6), FIG. 5D): 2.3 ± 0.3 mL/min
GFR Iohexol/100 g (Iohexol plasma clearance; SD male rats (n = 8)): 0.59 ± 0.06 ml/min · 100 g
k, plasma disappearance rate constant of iohexol for the second mono-exponential phase (Iohexol plasma clearance; SD male rats (n = 8)): 0.025 ± 0.002 min⁻¹
GFR Iohexol/100 g (Iohexol plasma clearance; Wistar male rats (n = 6)): 0.64 ± 0.01 ml/min · 100 g
k, plasma disappearance rate constant of iohexol for the second mono-exponential phase (Iohexol plasma clearance; Wistar male rats (n = 6)): 0.027 ± 0.002 min⁻¹
clearance (Iohexol plasma clearance; intravenous, SD male rats, baseline before 0.35% adenine (CKD model), read-out: Mean GFR estimated from iohexol clearance): 2.89 ± 0.14 mL/min
clearance (Iohexol plasma clearance; iv, SD female rats (n = 6), read-out: GFR Iohexol (iohexol clearance)): 2.25 ± 0.26 mL/min
clearance (Iohexol plasma clearance; iv, SD male rats (n = 8), read-out: GFR Iohexol (iohexol clearance)): 2.89 ± 0.12 mL/min
clearance (Iohexol plasma clearance; iv, Wistar male rats (n = 6), read-out: GFR Iohexol (iohexol clearance)): 2.84 ± 0.34 mL/min
Molecule: CC(=O)N(CC(O)CO)c1c(I)c(C(=O)NCC(O)CO)c(I)c(C(=O)NCC(O)CO)c1I (stereo not shown) [Iohexol]

Molecule: ^18F-cytochrome C: Cytochrome C from bovine heart labelled with [^18F]F-Py-TFP, comprising a 6-[^18F]fluoropyridine-3-carboxy group
GFR measured with PET (Mouse PET-CT GFR): 0.55 ± 0.12 mL/min
GFR relative to the initial control value (PET-CT) ([2]; 3 weeks of adenine): −50%
GFR relative to the initial control value (PET-CT) ([2]; 7 weeks of adenine): −20%
GFR (PET) ([2]; SD female rats (n = 6)): 1.88 ± 0.16 mL/min
GFR/100 g (PET) ([2]; SD female rats (n = 6)): 0.61 ± 0.06 ml/min · 100 g rat
PET-CT GFR ([2]; SD females (n=6), FIG. 5D): 2.3 ± 0.3 mL/min
GFR (PET) ([2]; SD male rats (n = 8)): 3.20 ± 0.12 mL/min
GFR/100 g (PET) ([2]; SD male rats (n = 8)): 0.66 ± 0.07 ml/min · 100 g rat
Mean GFR, PET-CT value ([2]; SD male rats, baseline before 0.35% adenine (CKD model)): 2.94 ± 0.12 mL/min
GFR (PET) ([2]; Wistar male rats (n = 6)): 3.01 ± 0.35 mL/min
GFR/100 g (PET) ([2]; Wistar male rats (n = 6)): 0.68 ± 0.11 ml/min · 100 g rat
Involvement of other organs such as liver and spleen [3]: negligible involvement of other organs
Time of ^18F signal appearance in the bladder ([3]; iv): less than 10 minutes
Time of ^18F signal peak over the large abdominal vessels ([3]; iv): less than 1 minute
Dimer formation / protein binding (size exclusion HPLC elution pattern) [4]: no sign of dimer formation or protein binding

B1: unlabelled cystatin C: Human cystatin C purchased from Nordic BioSite, unlabelled (protein, UniProt P01034 27-146, looked up)
Cystatin-C: SSPGKPPRLVGGPMDASVEEEGVRRALDFAVGEYNKASNDMYHSRALQVVRARKQIVAGVNYFLDVELGRTTCTKTQPNLDNCPFHDQPHLKRKAFCSFQIYAVPWQGTMTLSKSTCQDA
Dimer formation / protein binding (size exclusion HPLC elution pattern) [4]: appeared mainly as dimers

B2: ^124I-labelled cystatin C: Human cystatin C (Nordic BioSite) labelled with ^124I for PET by Iodo-Gen (protein, UniProt P01034 27-146, looked up)
Cystatin-C: B1 Cystatin-C
modifications: 124I label
notes: Human cystatin C (Nordic BioSite) labelled with ^124I for PET by Iodo-Gen
Dimer formation / protein binding (size exclusion HPLC elution pattern) [4]: appeared mainly as dimers
